Reference: US20030109000A1

Target: cell-surface PDGF receptors (on rat stellate cells) (rat)
Test: cell-based or functional assay

- luciferase reporter (SRE/STAT) RLU in rat stellate cell lysate at 0.3 ng/ml: 160 RLU
- luciferase reporter (SRE/STAT) RLU in rat stellate cell lysate at 1 ng/ml: 278 RLU
- luciferase reporter (SRE/STAT) RLU in rat stellate cell lysate at 3 ng/ml: 400 RLU
- luciferase reporter (SRE/STAT) RLU in rat stellate cell lysate at 10 ng/ml: 542 RLU
- luciferase reporter (SRE/STAT) RLU in rat stellate cell lysate at 30 ng/ml: 672 RLU
- luciferase reporter (SRE/STAT) RLU in rat stellate cell lysate at 100 ng/ml: 826 RLU
- luciferase reporter (SRE/STAT) RLU in rat stellate cell lysate at 300 ng/ml: 883 RLU
Substance: PDGF-D GFD dimer (from UniProt Q5RA73 250-370) (ligand)
